Patent publication US20070224205A1
Where a chain is given by its changes, count along the chain named.

Biological target: Toll-like Receptor 5 (UniProt O60602)
Experiment: cell-based or functional assay

B1: STF2.HA1-2His(PR8), produced in Baculovirus (protein)
chain: AQVINTNSLSLLTQNNLNKSQSALGTAIERLSSGLRINSAKDDAAGQAIANRFTANIKGLTQASRNANDGISIAQTTEGALNEINNNLQRVRELAVQSANSTNSQSDLDSIQAEITQRLNEIDRVSGQTQFNGVKVLAQDNTLTIQVGANDGETIDIDLKQINSQTLGLDSLNVQKAYDVKDTAVTTKAYANNGTTLDVSGLDDAAIKAATGGTNGTASVTGGAVKFDADNNKYFVTIGGFTGADAAKNGDYEVNVATDGTVTLAAGATKTTMPAGATTKTEVQELKDTPAVVSADAKNALIAGGVDATDANGAELVKMSYTDKNGKTIEGGYALKAGDKYYAADYDEATGAIKAKTTSYTAADGTTKTAANQLGGVDGKTEVVTIDGKTYNASKAAGHDFKAQPELAEAAAKTTENPLQKIDAALAQVDALRSDLGAVQNRFNSAITNLGNTVNNLSEARSRIEDSDYATEVSNMSRAQILQQAGTSVLAQANQVPQNVLSLLASGSGSGSKGIAPQLGKCNIAGWLLGNPECDPLLPVRSWSYIVETPNSENGICYPGDFIDYEELREQLSSVSSFERFEIFPKESSWPNHNTNGVTAACSHEGKSSFYRNLLWLTEKEGSYPKLKNSYVNKKGKEVLVLWGIHHPPNSKEQQNLYQNENAYVSVVTSNYNRRFTPEIAERPKVRDQAGRMNYYWTLLKPGDTIIFEANGNLIAPMYAFALSRGFGSGIITSHHHHHH
**Q.** Which TLR activity (EC50, ng/ml); IL-8 secretion by HEK293 cells does the source give for B1 here?
**A.** Its TLR activity (EC50, ng/ml); IL-8 secretion by HEK293 cells is 9 ng/mL.

B2: ngSTF2.HA1-2mutHis(PR8) (protein)
chain: B1 chain with N18Q, N100Q, N193Q, N215Q, N392Q, N456Q, N475Q, I515A, Y545D, V547A
**Q.** Which TLR activity (EC50, ng/ml); IL-8 secretion by HEK293 cells does the source give for B2 here?
**A.** The TLR activity (EC50, ng/ml); IL-8 secretion by HEK293 cells was 9 ng/mL.

B3: STF2.HA1-2(PR8), produced in E. coli (protein)
chain: MAQVINTNSLSLLTQNNLNKSQSALGTAIERLSSGLRINSAKDDAAGQAIANRFTANIKGLTQASRNANDGISIAQTTEGALNEINNNLQRVRELAVQSANSTNSQSDLDSIQAEITQRLNEIDRVSGQTQFNGVKVLAQDNTLTIQVGANDGETIDIDLKQINSQTLGLDSLNVQKAYDVKDTAVTTKAYANNGTTLDVSGLDDAAIKAATGGTNGTASVTGGAVKFDADNNKYFVTIGGFTGADAAKNGDYEVNVATDGTVTLAAGATKTTMPAGATTKTEVQELKDTPAVVSADAKNALIAGGVDATDANGAELVKMSYTDKNGKTIEGGYALKAGDKYYAADYDEATGAIKAKTTSYTAADGTTKTAANQLGGVDGKTEVVTIDGKTYNASKAAGHDFKAQPELAEAAAKTTENPLQKIDAALAQVDALRSDLGAVQNRFNSAITNLGNTVNNLSEARSRIEDSDYATEVSNMSRAQILQQAGTSVLAQANQVPQNVLSLLAKGIAPLQLGKCNIAGWLLGNPECDPLLPVRSWSYIVETPNSENGICYPGDFIDYEELREQLSSVSSFERFEIFPKESSWPNHNTNGVTAACSHEGKSSFYRNLLWLTEKEGSYPKLKNSYVNKKGKEVLVLWGIHHPPNSKEQQNLYQNENAYVSVVTSNYNRRFTPEIAERPKVRDQAGRMNYYWTLLKPGDTIIFEANGNLIAPMYAFALSRGFGSGIITS
**Q.** For B3, which TLR5 activity (EC50, ng/ml); IL-8 secretion by HEK293 cells is on record?
**A.** The TLR5 activity (EC50, ng/ml); IL-8 secretion by HEK293 cells was 0.15 ng/mL.

B4: STF2.HA1-2(PR8)mut (protein)
chain: B3 chain with I509A, Y540D, V542A
**Q.** Which TLR5 activity (EC50, ng/ml); IL-8 secretion by HEK293 cells does the source give for B4 here?
**A.** The TLR5 activity (EC50, ng/ml); IL-8 secretion by HEK293 cells was 1.2 ng/mL.

B5: STF2.HA1-1His(PR8), produced in E. coli (protein)
chain: MAQVINTNSLSLLTQNNLNKSQSALGTAIERLSSGLRINSAKDDAAGQAIANRFTANIKGLTQASRNANDGISIAQTTEGALNEINNNLQRVRELAVQSANSTNSQSDLDSIQAEITQRLNEIDRVSGQTQFNGVKVLAQDNTLTIQVGANDGETIDIDLKQINSQTLGLDSLNVQKAYDVKDTAVTTKAYANNGTTLDVSGLDDAAIKAATGGTNGTASVTGGAVKFDADNNKYFVTIGGFTGADAAKNGDYEVNVATDGTVTLAAGATKTTMPAGATTKTEVQELKDTPAVVSADAKNALIAGGVDATDANGAELVKMSYTDKNGKTIEGGYALKAGDKYYAADYDEATGAIKAKTTSYTAADGTTKTAANQLGGVDGKTEVVTIDGKTYNASKAAGHDFKAQPELAEAAAKTTENPLQKIDAALAQVDALRSDLGAVQNRFNSAITNLGNTVNNLSEARSRIEDSDYATEVSNMSRAQILQQAGTSVLAQANQVPQNVLSLLASHNGKLCRLKGIAPLQLGKCNIAGWLLGNPECDPLLPVRSWSYIVETPNSENGICYPGDFIDYEELREQLSSVSSFERFEIFPKESSWPNHNTNGVTAACSHEGKSSFYRNLLWLTEKEGSYPKLKNSYVNKKGKEVLVLWGIHHPPNSKEQQNLYQNENAYVSVVTSNYNRRFTPEIAERPKVRDQAGRMNYYWTLLKPGDTIIFEANGNLIAPMYAFALSRGFGSGIITSNASMHECNTKCQTPLGAINSSLPYQNIHPVTIGECPKYVRHHHHHH
**Q.** With B5 as the binder, how does the TLR5 activity (EC50, ng/ml); IL-8 secretion by HEK293 cells read?
**A.** Its TLR5 activity (EC50, ng/ml); IL-8 secretion by HEK293 cells is 0.2 ng/mL.

B6: STF2.HA1-2mutHis(PR8), produced in Baculovirus (protein)
chain: AQVINTNSLSLLTQNNLNKSQSALGTAIERLSSGLRINSAKDDAAGQAIANRFTANIKGLTQASRNANDGISIAQTTEGALNEINNNLQRVRELAVQSANSTNSQSDLDSIQAEITQRLNEIDRVSGQTQFNGVKVLAQDNTLTIQVGANDGETIDIDLKQINSQTLGLDSLNVQKAYDVKDTAVTTKAYANNGTTLDVSGLDDAAIKAATGGTNGTASVTGGAVKFDADNNKYFVTIGGFTGADAAKNGDYEVNVATDGTVTLAAGATKTTMPAGATTKTEVQELKDTPAVVSADAKNALIAGGVDATDANGAELVKMSYTDKNGKTIEGGYALKAGDKYYAADYDEATGAIKAKTTSYTAADGTTKTAANQLGGVDGKTEVVTIDGKTYNASKAAGHDFKAQPELAEAAAKTTENPLQKIDAALAQVDALRSDLGAVQNRFNSAITNLGNTVNNLSEARSRIEDSDYATEVSNMSRAQILQQAGTSVLAQANQVPQNVLSLLASGSGSGSKGAAPLQLGKCNIAGWLLGNPECDPLLPVRSWSDIAETPNSENGICYPGDFIDYEELREQLSSVSSFERFEIFPKESSWPNHNTNGVTAACSHEGKSSFYRNLLWLTEKEGSYPKLKNSYVNKKGKEVLVLWGIHHPPNSKEQQNLYQNENAYVSVVTSNYNRRFTPEIAERPKVRDQAGRMNYYWTLLKPGDTIIFEANGNLIAPMYAFALSRGFGSGIITSHHHHHH
**Q.** Which TLR activity (EC50, ng/ml); IL-8 secretion by HEK293 cells does the source give for B6 here?
**A.** The TLR activity (EC50, ng/ml); IL-8 secretion by HEK293 cells was 900 ng/mL.

B7: STF2.HA1-3(PR8), produced in E. coli (protein)
chain: MAQVINTNSLSLLTQNNLNKSQSALGTAIERLSSGLRINSAKDDAAGQAIANRFTANIKGLTQASRNANDGISIAQTTEGALNEINNNLQRVRELAVQSANSTNSQSDLDSIQAEITQRLNEIDRVSGQTQFNGVKVLAQDNTLTIQVGANDGETIDIDLKQINSQTLGLDSLNVQKAYDVKDTAVTTKAYANNGTTLDVSGLDDAAIKAATGGTNGTASVTGGAVKFDADNNKYFVTIGGFTGADAAKNGDYEVNVATDGTVTLAAGATKTTMPAGATTKTEVQELKDTPAVVSADAKNALIAGGVDATDANGAELVKMSYTDKNGKTIEGGYALKAGDKYYAADYDEATGAIKAKTTSYTAADGTTKTAANQLGGVDGKTEVVTIDGKTYNASKAAGHDFKAQPELAEAAAKTTENPLQKIDAALAQVDALRSDLGAVQNRFNSAITNLGNTVNNLSEARSRIEDSDYATEVSNMSRAQILQQAGTSVLAQANQVPQNVLSLLANSENGICYPGDFIDYEELREQLSSVSSFERFEIFPKESSWPNHNTNGVTAACSHEGKSSFYRNLLWLTEKEGSYPKLKNSYVNKKGKEVLVLWGIHHPPNSKEQQNLYQNENAYVSVVTSNYNRRFTPEIAERPKVRDQAGRMNYYWTLLKPGDTIIFEANGNLIAPMYAFALSRG
**Q.** B7 was tested. Which TLR5 activity (EC50, ng/ml); IL-8 secretion by HEK293 cells did it give?
**A.** Its TLR5 activity (EC50, ng/ml); IL-8 secretion by HEK293 cells is 1.2 ng/mL.

B8: STF2.EIII+ (protein)
chain: MAQVINTNSLSLLTQNNLNKSQSALGTAIERLSSGLRINSAKDDAAGQAIANRFTANIKGLTQASRNANDGISIAQTTEGALNEINNNLQRVRELAVQSANSTNSQSDLDSIQAEITQRLNEIDRVSGQTQFNGVKVLAQDNTLTIQVGANDGETIDIDLKQINSQTLGLDSLNVQKAYDVKDTAVTTKAYANNGTTLDVSGLDDAAIKAATGGTNGTASVTGGAVKFDADNNKYFVTIGGFTGADAAKNGDYEVNVATDGTVTLAAGATKTTMPAGATTKTEVQELKDTPAVVSADAKNALIAGGVDATDANGAELVKMSYTDKNGKTIEGGYALKAGDKYYAADYDEATGAIKAKTTSYTAADGTTKTAANQLGGVDGKTEVVTIDGKTYNASKAAGHDFKAQPELAEAAAKTTENPLQKIDAALAQVDALRSDLGAVQNRFNSAITNLGNTVNNLSEARSRIEDSDYATEVSNMSRAQILQQAGTSVLAQANQVPQNVLSLLRKGNSKLEGQLEFPRTSMEKLQLKGTTYGVCSKAFKFLGTPADTGHGTVVLELQYTGTDGPCKVPISSVASLNDLTPVGRLVTVNPFVSVATANAKVLIELEPPFGDSYIVVGRGEQQINHHWHKSGSSIGK
**Q.** Which TLR-5 EC50 (batch 052); IL-8 secretion by HEK293 cells does the source give for B8 here?
**A.** The TLR-5 EC50 (batch 052); IL-8 secretion by HEK293 cells was over 5000 ng/mL.

**Q.** What about the TLR-5 EC50 (batch 054); IL-8 secretion by HEK293 cells of the same binder?
**A.** The TLR-5 EC50 (batch 054); IL-8 secretion by HEK293 cells was 1200 ng/mL.

**Q.** And the TLR-5 EC50 (batch 057); IL-8 secretion by HEK293 cells?
**A.** The TLR-5 EC50 (batch 057); IL-8 secretion by HEK293 cells was 198 ng/mL.
